For assay [1], the target named is T1, soluble extracellular D2-D3 region of human FGFR1c (Asp142-Arg365) (human, UniProt P11362 142-365).
T1 construct: fibroblast growth factor receptor 1, 'c' splice isoform, human, extracellular D2-D3 region, residues Asp142-Arg365; also called FGFR1c ectodomain; FGFR1c isoform; source: E. coli (BL21), purified
T1 sequence (looked up): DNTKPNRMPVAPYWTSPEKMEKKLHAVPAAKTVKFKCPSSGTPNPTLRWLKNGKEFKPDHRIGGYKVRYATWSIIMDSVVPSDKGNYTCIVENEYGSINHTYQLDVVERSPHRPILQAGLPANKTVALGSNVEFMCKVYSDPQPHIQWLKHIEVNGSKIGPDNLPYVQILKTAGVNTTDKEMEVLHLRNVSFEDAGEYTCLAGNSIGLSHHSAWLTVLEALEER
The assay is described as follows: SPR; BIAcore T200; HBS-EP buffer (10 mM HEPES-NaOH, pH 7.4, 150 mM NaCl, 3 mM EDTA, 0.005% Surfactant P20); which partner was immobilised is not told in the main text. Particulars: both partners purified. In general terms: Surface plasmon resonance follows binding to a sensor surface in real time, without labels.

The target in assay [2] is T2, soluble extracellular D2-D3 region of human FGFR1c (Asp142-Arg365) (human, UniProt P11362 142-365).
T2 chain: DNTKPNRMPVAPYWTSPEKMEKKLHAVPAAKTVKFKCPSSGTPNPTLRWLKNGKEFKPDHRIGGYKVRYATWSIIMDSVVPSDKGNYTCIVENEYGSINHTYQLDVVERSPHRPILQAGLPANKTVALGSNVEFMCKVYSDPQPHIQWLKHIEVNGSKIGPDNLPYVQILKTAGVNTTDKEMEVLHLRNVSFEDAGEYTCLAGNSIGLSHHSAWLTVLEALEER
The assay is described as follows: SPR.

B1: full length mature form human FGF4 (mFGF4) (Ala31-Leu206) (ligand, UniProt P08620 31-206, looked up)
chain: APTAPNGTLEAELERRWESLVALSLARLPVAAQPKEAAVQSGAGDYLLGIKRLRRLYCNVGIGFHLQALPDGRIGGAHADTRDSLLELSPVERGVVSIFGVASRFFVAMSSKGKLYGSPFFTDECTFKEILLPNNYNAYESYKYPGMFIALSKNGKTKKGNRVSPTMKVTHFLPRL
notes: fibroblast growth factor 4, human, full length mature form, residues Ala31-Leu206; also called wild-type parent molecule; source: E. coli (BL21), purified
Regarding B1, the binding result in assay [1] is given as “binds”. Moreover, the affinity in assay [2], expressed as Kd, was 464 nM.

B2: N-terminally truncated human FGF4 (rFGF4) (Ala67-Leu206) (domain or fragment, UniProt P08620 67-206, looked up)
chain: AAVQSGAGDYLLGIKRLRRLYCNVGIGFHLQALPDGRIGGAHADTRDSLLELSPVERGVVSIFGVASRFFVAMSSKGKLYGSPFFTDECTFKEILLPNNYNAYESYKYPGMFIALSKNGKTKKGNRVSPTMKVTHFLPRL
notes: fibroblast growth factor 4, human, engineered N-terminal truncation, residues Ala67-Leu206; also called truncated rFGF4; source: E. coli (BL21), purified
For B2, in assay [1], the binding result is given as “binds”. Besides, binding in assay [2] was put at a Kd of 716 nM.

Source of the values: paper PMC8671394, “Paracrine FGFs target skeletal muscle to exert potent anti-hyperglycemic effects” (Nature Communications, 2021).
